{"source": "patent US20240067947", "target": "T1, VWF-73 FRETS substrate, P04275", "T1 chain": "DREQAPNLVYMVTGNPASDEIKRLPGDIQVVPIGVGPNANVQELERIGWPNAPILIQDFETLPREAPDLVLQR"}
{"protein": "Truncated wild-type ADAMTS13 (protein) AAGGILHLELLVAVGPDVFQAHQEDTERYVLTNLNIGAELLRDPSLGAQFRVHLVKMVILTEPEGAPNITANLTSSLLSVCGWSQTINPEDDTDPGHADLVLYITRFDLELPDGNRQVRGVTQLGGACSPTWSCLITEDTGFDLGVTIAHEIGHSFGLEHDGAPGSGCGPSGHVMASDGAAPRAGLAWSPCSRRQLLSLLSAGRARCVWDPPRPQPGSAGHPPDAQPGLYYSANEQCRVAFGPKAVACTFAREHLDMCQALSCHTDPLDQSSCSRLLVPLLDGTECGVEKWCSKGRCRSLVELTPIAAVHGRWSSWGPRSPCSRSCGGGVVTRRRQCNNPRPAFGGRACVGADLQAEMCNTQACEKTQLEFMSQQCARTDGQPLRSSPGGASFYHWGAAVPHSQGDALCRHMCRAIGESFIMKRGDSFLDGTRCMPSGPREDGTLSLCVSGSCRTFGCDGRMDSQQVWDRCQVCGGDNSTCSPRKGSFTAGRAREYVTFLTVTPNLTSVYIANHRPLFTHLAVRIGGRYVVAGKMSISPNTTYPSLLEDGRVEYRVALTEDRLPRLEEIRIWGPLQEDADIQVYRRYGEEYGNLTRPDITFTYFQPKPRQA", "values": [{"measurement": "ADAMTS13 activity (VWF-73 FRETS assay)", "result": "demonstrated enhanced activity of mrADAMTS13 compared to truncated wild type ADAMTS13"}]}
{"protein": "mrADAMTS13 (truncated modified human recombinant ADAMTS13) (protein) AAGGILHLELLVAVGPDVFQAHQEDTERYVLTNLNIGAELLRDPSLGAQFRVHLVKMVILTEPEGAPNITANLTSSLLSVCGWSQTINPEDDTDPGHADLVLYITRFDLELPDGNRQVRGVTQLGGACSPTWSCLITEDTGFDLGVTIAHEIGHSFGLEHDGAPGSGCGPSGHVMASDGAAPRAGLAWSPCSRRQLLSLLSAGRARCVWDPPRPQPGSAGHPPDAQPGLYYSANEQCRVAFGPKAVACTFAREHLDMCQALSCHTDPLDQSSCSRLLVPLLDGTECGVEKWCSKGRCRSLVELTPIAAVHGRWSSWGPRSPCSRSCGGGVVTRRRQCNNPRPAFGGRACVGADLQAEMCNTQACEKTQLEFMSQQCARTDGQPLRSSPGGASFYHWGAAVPHSQGDALCRHMCRAIGESFIMKRGDSFLDGTRCMPSGPREDGTLSLCVSGSCRTFGCDGRMDSQQVWDRCQVCGGDNSTCSPRKGSFTAGRAREYVTFLTVTPNLTSVYIANHRPLFTHLAVRIGGRYVVAGKMSISPNTTYPSLLEDGRVEYRVALTEDRLPRLEEIRIWGPLQEDADIQVYRRYGEEYGNLTRPDITFTYFQPKPRQAKGELGTELGSEGKPIPNPLLGLDSTRTGHHHHHH", "values": [{"measurement": "ADAMTS13 activity (VWF-73 FRETS assay)", "result": "demonstrated enhanced activity of mrADAMTS13 compared to truncated wild type ADAMTS13"}, {"measurement": "ADAMTS13 specific activity of mrADAMTS13 released from PLGA microparticles (FRETS VWF-73 fluorescent emission)", "result": "This data demonstrates active ADAMTS13 enzyme is present in all samples including at 120 hours"}]}
